# Reference: publication PMC7395175
# B1: HA-tagged zDHHC5 [murine] / human PLM expressed in HEK-derived FT-293 cells [human] (parent)
# chain 1: MPAESGKRFKPSKYVPVSAAAIFLVGATTLFFAFTCPGLSLNVSPAVPIYNAIMFLFVLANFSMATFMDPGIFPRAEEDEDKEDDFRAPLYKTVEIKGIQVRMKWCATCRFYRPPRCSHCSVCDNCVEEFDHHCPWVNNCIGRRNYRYFFLFLLSLTAHIMGVFGFGLLYVLYHIEELSGVRTAVTMAVMCVAGLFFIPVAGLTGFHVVLVARGRTTNEQVTGKFRGGVNPFTNGCCNNVSRVLCSSPAPRYLGRPKKEKTIVIRPPFLRPEVSDGQITVKIMDNGIQGELRRTKSKGSLEITESQSADAEPPPPPKPDLSRYTGLRTHLSLATNEDSSLLGKDSPPTPTMYKYRPGYSSSSTSAAMPHSSSAKLSRGDSLKEPTSIADSSRHPSYRSEPSLEPESFRSPTFGKSFHFDPLSSGSRSSSLKSAQGTGFELGQLQSIRSEGTTSTSYKSLANQTRNGSLSYDSLLTPSDSPDFESVQAGPEPDPPLGYTSPFLSARLAQQREAERHPRLLPTGPPHREPSPVRYDNLSRHIVASLQEREKLLRQSPPLAGREEEPGLGDSGIQSTPGSGHAPRTSSSSDDSKRSPLSKTPLGRPAVPRFGKPDGLRSRGLGSPEPGTTAPYLGRSISYSSQKAPSGVSETEEVALQPLLTPKDEVQLKTTYSKSNGQPKSIGSASPGPGQPPLSSPTRGGVKKVSGVGGTTYEISV
# chain 2: ESPKEHDPFTYDYQSLQIGGLVIAGILFILGILIVLSRRCRCKFNQQQRTGEPDEEEGTFRSSIRRLSTRRR
# Variants of: B1
# Test: co-immunoprecipitation (HA IP, Western blot quantified)
# Conditions: with human PLM expressed in HEK-derived FT-293 cells [human]; n = 3; read off a plot
row,response [PLM/HA],Variant
1,0.79,chain 1 C236A C237A
